From publication PMC9381590

Target: endogenous PKM2 (human (endogenous in CRC cells)) (UniProt P14618)
Assay: not stated; monomeric, dimeric and tetrameric forms of endogenous PKM2 in HCT116 cells with or without DDX39B overexpression (Supplementary Fig. 7c)

Sequence of endogenous PKM2, P14618 1-531 (natural protein; other documents disagree on this pair) (P14618 whole entry): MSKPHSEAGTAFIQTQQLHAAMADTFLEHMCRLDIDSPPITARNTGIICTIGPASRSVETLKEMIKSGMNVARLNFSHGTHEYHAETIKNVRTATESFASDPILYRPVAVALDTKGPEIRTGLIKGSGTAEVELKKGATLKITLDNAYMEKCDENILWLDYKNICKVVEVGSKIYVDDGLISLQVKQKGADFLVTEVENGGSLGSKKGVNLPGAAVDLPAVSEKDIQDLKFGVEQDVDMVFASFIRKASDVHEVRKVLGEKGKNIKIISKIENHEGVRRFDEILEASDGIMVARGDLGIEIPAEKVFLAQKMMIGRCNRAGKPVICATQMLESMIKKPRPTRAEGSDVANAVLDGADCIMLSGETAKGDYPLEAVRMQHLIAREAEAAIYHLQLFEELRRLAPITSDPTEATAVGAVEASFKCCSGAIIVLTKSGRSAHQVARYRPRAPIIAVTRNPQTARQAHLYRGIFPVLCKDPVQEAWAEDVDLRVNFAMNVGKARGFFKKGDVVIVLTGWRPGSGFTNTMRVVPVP

- stoichiometry N: 2
Substance: endogenous PKM2, P14618 1-531 (natural protein; other documents disagree on this pair)
